Measurements reported in the Human Domainome abundance scans (Beltran et al. 2025).
± gives the uncertainty stated by the source.

B1: Spectrin alpha chain, erythrocytic 1, residues 979 to 1036; numbered along this chain, P02549 (parent)
chain: EQRVMALYDFQARSPREVTMKKGDVLTLLSSINKDWWKVEAADHQGIVPAVYVRRLAH

Variants of: B1
Test: abundance fitness (aPCA) (normalised: wild type 0, dead -1); higher = more abundant; growth selection in yeast, the domain comes from the species named
Conditions: Homo sapiens

Question: With A12L as the variant, how does the abundance fitness read?
Answer: Its abundance fitness is -0.964 ± 0.23.

Question: For A12K, which abundance fitness is on record?
Answer: Its abundance fitness is -0.71 ± 0.47.

Question: With D35L as the variant, how does the abundance fitness read?
Answer: Its abundance fitness is -0.685 ± 0.098.

Question: Which abundance fitness does the source give for D35N here?
Answer: Its abundance fitness is -0.182 ± 0.24.

Question: Which abundance fitness does the source give for D35K here?
Answer: The abundance fitness was -0.027 ± 0.16.

Question: With D35M as the variant, how does the abundance fitness read?
Answer: The abundance fitness was -0.535 ± 0.26.

Question: For D35Q, which abundance fitness is on record?
Answer: Its abundance fitness is -0.697 ± 0.31.

Question: With D35R as the variant, how does the abundance fitness read?
Answer: Its abundance fitness is -0.326 ± 0.2.

Question: For L7P, which abundance fitness is on record?
Answer: Its abundance fitness is -0.76 ± 0.14.

Question: For L7V, which abundance fitness is on record?
Answer: The abundance fitness was -0.199 ± 0.15.

Question: For L7M, which abundance fitness is on record?
Answer: Its abundance fitness is -0.049 ± 0.14.

Question: For L7R, which abundance fitness is on record?
Answer: Its abundance fitness is -0.686 ± 0.14.

Question: With L7A as the variant, how does the abundance fitness read?
Answer: Its abundance fitness is -0.609 ± 0.12.

Question: For L29M, which abundance fitness is on record?
Answer: The abundance fitness was -0.582 ± 0.16.

Question: For L29I, which abundance fitness is on record?
Answer: Its abundance fitness is -0.266 ± 0.4.

Question: With L29P as the variant, how does the abundance fitness read?
Answer: Its abundance fitness is 0.075 ± 0.33.

Question: For L29V, which abundance fitness is on record?
Answer: The abundance fitness was 0.016 ± 0.081.

Question: For V4G, which abundance fitness is on record?
Answer: Its abundance fitness is -1.05 ± 0.28.

Question: Which abundance fitness does the source give for V4P here?
Answer: Its abundance fitness is -0.927 ± 0.21.

Question: For V4T, which abundance fitness is on record?
Answer: Its abundance fitness is -1.04 ± 0.23.

Question: Which abundance fitness does the source give for V4K here?
Answer: Its abundance fitness is -0.739 ± 0.16.

Question: With A42R as the variant, how does the abundance fitness read?
Answer: Its abundance fitness is -0.243 ± 0.16.

Question: Which abundance fitness does the source give for A42C here?
Answer: The abundance fitness was -0.197 ± 0.24.

Question: With A42G as the variant, how does the abundance fitness read?
Answer: The abundance fitness was 0.455 ± 0.059.

Question: With A42Q as the variant, how does the abundance fitness read?
Answer: Its abundance fitness is -0.021 ± 0.077.

Question: Which abundance fitness does the source give for A42P here?
Answer: The abundance fitness was -0.223 ± 0.36.

Question: For A42L, which abundance fitness is on record?
Answer: Its abundance fitness is 0.178 ± 0.16.

Question: With V39K as the variant, how does the abundance fitness read?
Answer: Its abundance fitness is -0.742 ± 0.43.

Question: Which abundance fitness does the source give for V39W here?
Answer: The abundance fitness was -0.564 ± 0.2.

Question: With V39R as the variant, how does the abundance fitness read?
Answer: The abundance fitness was -0.852 ± 0.24.

Question: Which abundance fitness does the source give for L26I here?
Answer: Its abundance fitness is -0.691 ± 0.11.

Question: Which abundance fitness does the source give for L26V here?
Answer: Its abundance fitness is -0.767 ± 0.28.

Question: For L26F, which abundance fitness is on record?
Answer: Its abundance fitness is -0.237 ± 0.32.

Question: Which abundance fitness does the source give for L26E here?
Answer: The abundance fitness was -0.5 ± 0.34.

Question: Which abundance fitness does the source give for L26A here?
Answer: Its abundance fitness is -0.493 ± 0.17.

Question: With A50L as the variant, how does the abundance fitness read?
Answer: Its abundance fitness is -0.844 ± 0.2.

Question: With A50P as the variant, how does the abundance fitness read?
Answer: Its abundance fitness is -0.847 ± 0.4.

Question: Which abundance fitness does the source give for A50R here?
Answer: The abundance fitness was 0.04 ± 0.12.

Question: Which abundance fitness does the source give for R16A here?
Answer: The abundance fitness was 0.254 ± 0.37.

Question: With K38S as the variant, how does the abundance fitness read?
Answer: The abundance fitness was -0.301 ± 0.096.

Question: For K38E, which abundance fitness is on record?
Answer: The abundance fitness was 0.281 ± 0.19.

Question: For K38H, which abundance fitness is on record?
Answer: The abundance fitness was -0.016 ± 0.4.

Question: For K38P, which abundance fitness is on record?
Answer: Its abundance fitness is -0.701 ± 0.34.

Question: For K38I, which abundance fitness is on record?
Answer: The abundance fitness was 0.097 ± 0.38.

Question: For K38F, which abundance fitness is on record?
Answer: The abundance fitness was 0.208 ± 0.25.

Question: With V48C as the variant, how does the abundance fitness read?
Answer: Its abundance fitness is -0.502 ± 0.29.

Question: For V48Q, which abundance fitness is on record?
Answer: The abundance fitness was -0.656 ± 0.12.

Question: For V48R, which abundance fitness is on record?
Answer: The abundance fitness was -0.551 ± 0.19.

Question: Which abundance fitness does the source give for V48G here?
Answer: Its abundance fitness is -1.09 ± 0.33.

Question: For V48A, which abundance fitness is on record?
Answer: The abundance fitness was -0.687 ± 0.17.

Question: For W36D, which abundance fitness is on record?
Answer: Its abundance fitness is -0.582 ± 0.15.

Question: Which abundance fitness does the source give for W36V here?
Answer: Its abundance fitness is -0.554 ± 0.42.

Question: Which abundance fitness does the source give for W36G here?
Answer: The abundance fitness was -0.778 ± 0.2.

Question: For W36E, which abundance fitness is on record?
Answer: The abundance fitness was 0.664 ± 0.2.

Question: With W36R as the variant, how does the abundance fitness read?
Answer: Its abundance fitness is -0.894 ± 0.36.

Question: For E17G, which abundance fitness is on record?
Answer: The abundance fitness was -0.801 ± 0.27.

Question: Which abundance fitness does the source give for E17Y here?
Answer: The abundance fitness was -0.012 ± 0.27.

Question: Which abundance fitness does the source give for E17R here?
Answer: Its abundance fitness is -0.778 ± 0.21.

Question: With E17T as the variant, how does the abundance fitness read?
Answer: Its abundance fitness is -0.729 ± 0.41.

Question: Which abundance fitness does the source give for T27P here?
Answer: The abundance fitness was -0.382 ± 0.44.

Question: For T27K, which abundance fitness is on record?
Answer: The abundance fitness was 0.229 ± 0.15.

Question: With T27L as the variant, how does the abundance fitness read?
Answer: The abundance fitness was -0.752 ± 0.27.

Question: Which abundance fitness does the source give for T27A here?
Answer: Its abundance fitness is -0.975 ± 0.32.

Question: For K22W, which abundance fitness is on record?
Answer: Its abundance fitness is -0.725 ± 0.2.

Question: For V25E, which abundance fitness is on record?
Answer: The abundance fitness was 0.059 ± 0.29.

Question: For V25L, which abundance fitness is on record?
Answer: Its abundance fitness is -1.01 ± 0.49.

Question: With V25A as the variant, how does the abundance fitness read?
Answer: The abundance fitness was -0.163 ± 0.26.

Question: Which abundance fitness does the source give for V25H here?
Answer: Its abundance fitness is -0.432 ± 0.14.

Question: Which abundance fitness does the source give for V25M here?
Answer: The abundance fitness was -0.425 ± 0.13.

Question: For K34G, which abundance fitness is on record?
Answer: The abundance fitness was -0.415 ± 0.081.

Question: With A57Q as the variant, how does the abundance fitness read?
Answer: The abundance fitness was 0.18 ± 0.36.

Question: For A57R, which abundance fitness is on record?
Answer: The abundance fitness was -0.053 ± 0.16.

Question: With A57C as the variant, how does the abundance fitness read?
Answer: The abundance fitness was -0.092 ± 0.15.

Question: With A57V as the variant, how does the abundance fitness read?
Answer: Its abundance fitness is -0.47 ± 0.23.

Question: For A57T, which abundance fitness is on record?
Answer: The abundance fitness was -0.022 ± 0.43.

Question: For T19A, which abundance fitness is on record?
Answer: The abundance fitness was -0.371 ± 0.17.

Question: For T19W, which abundance fitness is on record?
Answer: Its abundance fitness is -0.932 ± 0.14.

Question: Which abundance fitness does the source give for T19E here?
Answer: The abundance fitness was -0.73 ± 0.36.

Question: For T19Q, which abundance fitness is on record?
Answer: The abundance fitness was -0.476 ± 0.16.

Question: Which abundance fitness does the source give for T19R here?
Answer: Its abundance fitness is -0.744 ± 0.21.

Question: Which abundance fitness does the source give for T19V here?
Answer: Its abundance fitness is -0.822 ± 0.11.

Question: Which abundance fitness does the source give for L28R here?
Answer: The abundance fitness was -0.938 ± 0.18.

Question: Which abundance fitness does the source give for L28G here?
Answer: Its abundance fitness is -0.756 ± 0.14.

Question: Which abundance fitness does the source give for L28K here?
Answer: The abundance fitness was -0.676 ± 0.44.
